Assay results as given in article PMC13365404 (npj Viruses, 2026).

Experiments:
Settings in all cases: one partner purified
[1] = target: T1, BDBV GP, full-length transmembrane glycoprotein expressed on MDCK SIAT-1 cells (Bundibugyo virus, Butalya-811250 …, UniProt B8XCN0); experiment: immunoprecipitation
[2] = target: T2, TAFV GP, full-length transmembrane glycoprotein expressed on MDCK SIAT-1 cells (Taï Forest virus (YP_003815426.1), UniProt Q66810); experiment: immunoprecipitation
[3] = target: RESTV GP expressed on MDCK SIAT-1 cells (Reston virus, isolate ; …, UniProt Q66799); experiment: immunostaining of cells or tissue
[4] = target: T3, EBOV GP (Mayinga), full-length transmembrane glycoprotein expressed on MDCK SIAT-1 cells (Ebola virus, Mayinga (NP_066246.1), UniProt Q05320); experiment: immunostaining of cells or tissue
[5] = target: T4, SUDV GP, full-length transmembrane glycoprotein expressed on MDCK SIAT-1 cells (Sudan virus, Gulu 2000 (YP_138523.1), UniProt Q7T9D9); experiment: immunostaining of cells or tissue
T4 construct: source: MDCK SIAT-1 cell line expressing GP (generated previously), on the cell surface

[6] = target: T3, EBOV GP (Mayinga), full-length …; experiment: immunoprecipitation
[7] = target: T1, BDBV GP, full-length transmembrane …; experiment: immunostaining of cells or tissue
[8] = target: T2, TAFV GP, full-length transmembrane …; experiment: immunostaining of cells or tissue

Measured: binding result

B1: mAb 11886 (recombinant rabbit IgG) (antibody, V domains shown)
VH: QSVEESGGRLVTPGTPLTLTCIVSGFSLSNYYMSWVRQVPGKGLEWIGVIGWSGTSSYASWAKGRFTISKTASTTVDLKITSPTTEDTATYFCARVLYIGGGFNYYDAFDPWGPGTLVTVS
VL: DVVMTQTPASVSEPVGGTVTIKCQASQSIGSNLAWYQQKPGQPPKLLIYAASTLASGVPSRFKGSGSGTEFTLTISDLECADAATYYCQCTYYDSSYVYNNFGGGTEVVVK
notes: source: HEK293F, transfected, purified (Protein A)
binds: [1] | [2] | [3] | [4] | [5]

B2: mAb 11883 (recombinant rabbit IgG) (antibody, V domains shown)
VH: QEQLVESGGGLVQPEGSLTLTCTASGFSFSSNCWRCWVRQAPGKGLEWIACVCAGRSGGTTYYASWAKGRFTISKTSSPTVTLQMTSLTAADTATYFCARAGYDDYGDASFFNLWGPGTLVTVS
VL: AVVLTQTASPVSTPVGGTVTIKCQASQNIYSNLAWYQQKPGQPPKLLIYSASTLASGVPSRFKGSGSGTEYTLTISDLECADAATYYCQRYYYLSGSADNTFGGGTEVVVK
notes: as for B1
binds: [6] | [3] | [5] | [7] | [8]
